Data on 94 variants can be found in the supplement of paper PMC10567573.

To fix the notation:
B1: GFOD1 (parent)
chain: EEAEELAKEMSVPFYTSRIDEVLL
B2: STK38L (parent)
chain: NWKETLVFPPEVPISEKAKDLILR
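Further: lentivirally expressed fusions sorted by FACS into six bins by GFP to DsRed ratio, PSI derived from sequencing read proportions per bin multiplied by bin number.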

The variants in one data set derive from B1. The data set can be described thus: protein stability index of a GFP-peptide fusion (GPS, HEK-293T) (PSI 1-6); higher = more stable. The note with it: c terminus: a fixed tail appended.
EEAEELAKECSVPFYTSRIDEVLL: the protein stability index was determined as 4.53. On to EEAEELAKEFSVPFYTSRIDEVLL, for which the protein stability index amounted to 3.62. The same measure, in the same setting: the same measure for EEAEELAKEMSVPFYTSRIDCVLL: 1.97. Still for that read-out and setting: the same measure for EAAEELAKEMSVPFYTSRIDEVLL: 3.66. In the case of EEAEELAKEMSVPFYTSRIEEVLL, the protein stability index was found to be 3.91. The same measure, in the same setting: to EEAEELAKEMSVPFYTSRIKEVLL belongs 2.78. EEAEELAKEMSVPFYTSRIAEVLL: the protein stability index was 2.74.

For the variant EEAEELAKEMSVPFYTSRITEVLL, the protein stability index was 2.66. Same read-out and setting: to EEAEELAKEMSVPFYTSRILEVLL belongs 2.07; to EEAEELAKEMSVPFYTSRIDEELL, 5.12; to EEAEELAKEMSVPFYTSRIDEQLL, 4.65.

Regarding EEAEELAKEMSVPFYTSRIDETLL, the protein stability index amounted to 4.51. For the variant EEAEELAKEMSVPFYTSRIDEYLL, the protein stability index was determined as 3.78.

As to EEAEELAKEMSVPDYTSRIDEVLL, the protein stability index turned out to be 4.9. Same read-out and setting: to EEAEELAKEMSVPNYTSRIDEVLL belongs 4.68; to EEAEELAKEMSVPFYTSRIDEVLH, 3.18; to EEAEELAKEMSVPFYTSRIDEVLG, 4.11. The same measure, in the same setting: the same measure for EEAEELAKEMSVPFYTSRIDEVLM: 3.73; for EEAEELAKEMSVPFYTSRIDEVLP: 4.98; for EEAEELAKEMSVPFYTSRIDEVLI: 3.75. The same measure, in the same setting: the same measure for EEAEELAKEMSVPFYTSRIDEVLN: 4.6. Turning to EEAEEHAKEMSVPFYTSRIDEVLL, the protein stability index worked out at 4.48. On the same count and under the same terms, the same measure for EEAEERAKEMSVPFYTSRIDEVLL: 4.2. The same measure, in the same setting: to EEAEELAKEMSVPFYTNRIDEVLL belongs 4.04; to EEAEELAKEMSVPFYTTRIDEVLL, 3.29; to EEAEELAKEMSVPFYTRRIDEVLL, 3.9. Same read-out and setting: to EEAEELAKSMSVPFYTSRIDEVLL belongs 2.92.

As for EEAEELAKMMSVPFYTSRIDEVLL, the protein stability index came out at 3.03. Still for that read-out and setting: to EEAEELAKEMSVPFYTSRTDEVLL belongs 4.11; to EEAEELAKEMSVPFYTSREDEVLL, 5.1.

For the variant EEAEELAKEMSVPFYTSRFDEVLL, the protein stability index was found to be 3.01.

On to EEAEELAKEMSVPFYTSRQDEVLL, for which the protein stability index came out at 4.93. Still for that read-out and setting: to EEAEELAKEMSVPFYTSRDDEVLL belongs 5.04; to EEAEELAKEMSVPFYTSRKDEVLL, 4.41. Same read-out and setting: to EEAEELAKEMSVPFYHSRIDEVLL belongs 3.93; to EEAEELAKEMSVPFYDSRIDEVLL, 4.33; to EEAEELAKEMSVPFYMSRIDEVLL, 3.03.

Turning to EEAEELAKEMSVLFYTSRIDEVLL, the protein stability index turned out to be 2.57.

On to EEAEELAKEMSVKFYTSRIDEVLL, for which the protein stability index worked out at 3.19. Take EEAEELAKEMSVPFYTSCIDEVLL: the protein stability index is 4.17. On the same count and under the same terms, to EEAEELAKEMSVPFYTSEIDEVLL belongs 4.65; to TEAEELAKEMSVPFYTSRIDEVLL, 3.56; to MEAEELAKEMSVPFYTSRIDEVLL, 3.45. Still for that read-out and setting: to SEAEELAKEMSVPFYTSRIDEVLL belongs 4.24; to GEAEELAKEMSVPFYTSRIDEVLL, 2.43; to REAEELAKEMSVPFYTSRIDEVLL, 3.33. Same read-out and setting: to EEAEWLAKEMSVPFYTSRIDEVLL belongs 2.35; to EEAEKLAKEMSVPFYTSRIDEVLL, 4.14; to EEAEDLAKEMSVPFYTSRIDEVLL, 3.93. For the variant EEAEHLAKEMSVPFYTSRIDEVLL, the protein stability index is 3.6.

For EEAEELAVEMSVPFYTSRIDEVLL, the protein stability index was determined as 2.85. In the case of EEAEELACEMSVPFYTSRIDEVLL, the protein stability index was determined as 2.9.

As for EEAEELAGEMSVPFYTSRIDEVLL, the protein stability index stood at 4.1.

Take EEAFELAKEMSVPFYTSRIDEVLL: the protein stability index was 2.98. In the case of EEAMELAKEMSVPFYTSRIDEVLL, the protein stability index turned out to be 4.

As to EEAEELAKEMCVPFYTSRIDEVLL, the protein stability index amounted to 3.36.

With EEAEELAKEMTVPFYTSRIDEVLL, the protein stability index was determined as 4.12. Same read-out and setting: to EEAEELAKEMSIPFYTSRIDEVLL belongs 3.6; to EEAEELAKEMSVPFSTSRIDEVLL, 5.01. Still for that read-out and setting: the same measure for EEAEELAKEMSVPFHTSRIDEVLL: 4.77. On to EEAEELAKEMSVPFGTSRIDEVLL, for which the protein stability index stood at 4.97.

Consider EEAEELAKEMSVPFETSRIDEVLL, for which the protein stability index was 4.99.

The variants in another data set derive from B2. The data set is described as above. The note with it: c terminus: a fixed tail appended.
For NWKEILVFPPEVPISEKAKDLILR, the protein stability index worked out at 2.53. For the variant NWKEVLVFPPEVPISEKAKDLILR, the protein stability index was found to be 2.61.

As to NWKELLVFPPEVPISEKAKDLILR, the protein stability index was found to be 2.09. Still for that read-out and setting: the same measure for NWKEKLVFPPEVPISEKAKDLILR: 2.48; for NWKESLVFPPEVPISEKAKDLILR: 2.87. Take NWKENLVFPPEVPISEKAKDLILR: the protein stability index was 3.36. Regarding NWKEELVFPPEVPISEKAKDLILR, the protein stability index turned out to be 2.36.

Take NWKERLVFPPEVPISEKAKDLILR: the protein stability index came out at 3.12. The same measure, in the same setting: the same measure for NWKEWLVFPPEVPISEKAKDLILR: 2.05; for NWKEPLVFPPEVPISEKAKDLILR: 3.42.

Consider NWKEQLVFPPEVPISEKAKDLILR, for which the protein stability index was determined as 4.08. Same read-out and setting: the same measure for NWKEHLVFPPEVPISEKAKDLILR: 3.2; for NWKEALVFPPEVPISEKAKDLILR: 3.27; for NWKEYLVFPPEVPISEKAKDLILR: 2.62. On the same count and under the same terms, the same measure for NWKECLVFPPEVPISEKAKDLILR: 2.44; for NWKEMLVFPPEVPISEKAKDLILR: 2.75. On the same count and under the same terms, the same measure for NWKEDLVFPPEVPISEKAKDLILR: 3.65; for CWKETLVFPPEVPISEKAKDLILR: 3.1. As for SWKETLVFPPEVPISEKAKDLILR, the protein stability index was found to be 4.02. On the same count and under the same terms, the same measure for RWKETLVFPPEVPISEKAKDLILR: 2.74. The same measure, in the same setting: the same measure for QWKETLVFPPEVPISEKAKDLILR: 3.09. For the variant MWKETLVFPPEVPISEKAKDLILR, the protein stability index stood at 1.98. As for DWKETLVFPPEVPISEKAKDLILR, the protein stability index was 3.57. As for IWKETLVFPPEVPISEKAKDLILR, the protein stability index was 2.18. The same measure, in the same setting: to YWKETLVFPPEVPISEKAKDLILR belongs 2.44. The same measure, in the same setting: the same measure for WWKETLVFPPEVPISEKAKDLILR: 1.78; for KWKETLVFPPEVPISEKAKDLILR: 2.9. Same read-out and setting: the same measure for PWKETLVFPPEVPISEKAKDLILR: 3; for AWKETLVFPPEVPISEKAKDLILR: 2.16; for HWKETLVFPPEVPISEKAKDLILR: 3.04. With VWKETLVFPPEVPISEKAKDLILR, the protein stability index turned out to be 2.41.

As for NWKETFVFPPEVPISEKAKDLILR, the protein stability index came to 3.31.
